Reference: publication PMC9729208, “Structural basis for the non-self RNA-activated protease activity of the type III-E CRISPR nuclease-protease Craspase”

Experiments:
[1] = molecular target: gRAMP;TPR-CHAT (Candidatus Scalindua brodae;Candidatus …, UniProt A0A0B0EGF3;A0A0B0EKL4 1-1717;1-716, |); assay: cryo-EM (2.6 A); Complex assembly at 1:1.2 (complex:target RNA), 5 mM EDTA, on ice 30 min; SEC in 20 mM Tris-HCl pH 8.0, 150 mM NaCl, 1 mM DTT; settings: protein: recombinant;recombinant; tags: N-terminal His6;C-terminal Strep II; copies: 1;1; single strand; 35 nt modelled in 7Y80 and 7Y84
[2] = molecular target: gRAMP (Candidatus Scalindua brodae, UniProt A0A0B0EGF3 1-1717); assay: cryo-EM; Complex assembly at 1:1.2 (complex:target RNA), 5 mM EDTA, on ice 30 min; SEC in 20 mM Tris-HCl pH 8.0, 150 mM NaCl, 1 mM DTT; settings: protein: recombinant; tags: N-terminal His6; single strand; 35 nt modelled in 7Y80 and 7Y84

B1: crRNA (ssRNA)
RNA: GACUUAAUGUCACGGUACCCAAUUUUCUGCCCCGGACUCCACGGCUGUUACUAGAG
binding result [1]: binds | binding result [2]: binds
